Test results published in US20210230304A1 (SYSMEX, published 2021).

What was measured:
[1] = target: T1, HER2 protein (R&D Systems, Inc., Catalog No. 1129-ER) (UniProt P04626 23-652); assay: SPR, Biacore T200; antigen immobilised, antibody as analyte
T1 construct: Bought reagent
Procedure: (§1) The affinity of the prepared variants was measured using Biacore (registered trademark) T200 (GE Healthcare). […] Antigen was immobilized (immobilization: 50 RU) to a sensor chip for Biacore (registered trademark) Series S Sensor Chip CMS (GE Healthcare). The antibody solution was diluted to prepare antibody solutions of 30 nM, 15 nM, 7.5 nM, 3.75 nM and […]. The antibody solutions at each concentration were delivered to Biacore (registered trademark) T200 (GE Healthcare) (association time of 120 seconds and dissociation time of 1800 seconds). Measurement data was analyzed using Biacore (registered trademark) Evaluation software, and the data on the affinity of each antibody was obtained.
(§2) In the measurement, TSH protein (R&D Systems, Inc.) was used as an antigen of the anti-TSH antibody, and HER2 protein (R&D Systems, Inc., Catalog No. 1129-ER) was used as an antigen of the anti-HER2 antibody.

[2] = target: T1, HER2 protein (R&D Systems, Inc., …); assay: SPR, Biacore T200; reference is the wild-type anti-HER2 antibody
Procedure: as §1, §2

B1: 76, 77, 81 variant (Arg) of the humanized anti-HER2 antibody (antibody, V domains shown)
VH: not shown
VL: DIQMTQSPSSLSASVGDRVTITCRASQDVNTAVAWYQQKPGKAPKLLIYSASFLYSGVPSRFSGSRSGTDFTLTIRRLQPRDFATYYCQQHYTTPPTFGQGTKVEIKR
- Kd [1]: 21.9 pM
- Ratio (Kd against wild-type = 1) [2]: 2.71
